{"source": "patent US11479601B2", "about": "“Antibodies specific to Sonic Hedgehog and method of use thereof” (The Regents of the University of California, priority 2016, dated 2022)", "molecules": {"B1": {"name": "2G4: purified mouse monoclonal C-terminal Shh antibody from hybridoma sub-clone 2G4 of clone 1C11, IgG1 kappa (antibody, V domains shown)", "VH": "EVKLVESGGGLVKPGGSLKLSCAASGFTFSSYTMSWVRQTPAKRLEWVATISSGGGNTYYPDSVKGRFTISRDNARNTLYLQMSSLRSEDTAMYYCARDYRSLFAYWGQGTLVTVSA", "VL": "QIVLTQSPAIMSASPGEKVTITCSASSSVSYMHWFQQKPGTSPKLWIYSTSNLASGVPARFSGSGSGTSYSLTISRMEAEDAATYYCQQRSSYPFTFGSGTKLEIK"}}, "key": {"[1]": {"tested_on": "Shh", "assay": "Western blot binding to purified and cell-expressed Shh", "parameters": "species or system human", "conditions": "purified Shh and Shh expressed endogenously and/or exogenously in cells", "text": "FIGS. 15A and 15B. Antibodies bind target SHh via Western blot. (FIG. 15A) Purified, recombinant human Shh (19.7 kDa, >98% purity by SDS-PAGE) was probed by the indicated antibodies. (FIG. 15B) Cell lysates from HEK-293T cells (PHX—Phoenix cells), with or without exogenous expression of full-length Shh, and A549 cells were probed with the antibodies produced by clones 2G4 and 2D9. Full-length Shh: ˜50 kDa; N-terminal Shh: ˜19 kDa; C-terminal Shh: ˜25 kDa. Sample 2 was lysate from PHX cells transfected with full-length Shh DNA for about 24 hours. The exogenously expressed Shh appears to be cleaved into N-terminal and C-terminal Shh peptides. Both PHX cells and A549 cells endogenously express Shh."}, "[2]": {"tested_on": "Shh 247-264 AA and Shh 448-462 AA peptides", "assay": "Biolayer interferometry (Octet RED 384) with Shh peptide-mimic ligands", "format": "binding, human", "conditions": "37-3000 nM peptides; versus IgG control antibody", "procedure": "Antibody immobilization was checked via Octet® Software (ForteBio) prior to introduction of increasing concentrations (37, 111, 333, 1000, 3000 nM) of Sonic Hedgehog peptide-mimic ligands (Shh 247-264 AA and Shh 448-462 AA). Graphical output from the Octet® Software of representative data from two independent experiments is presented."}, "[3]": {"tested_on": "A549 cells", "assay": "Viability of A549 cells treated with Shh antibodies ± GLI inhibitor 249C", "format": "cell-based, human", "conditions": "for Cell viability of A549 cells: 249C at 40 nM where added", "procedure": "The effect of the C-terminal Shh antibodies from clones 2G4 and 2D9 on the viability of A549 cells was determined. A549 cells were exposed to increasing concentrations of the C-terminal Shh antibodies (2G4, 2D9), or antibodies against the N-terminal portion of Shh protein (6D3, 2E1), and the effective dose (ED50) was determined (assay 1: FIG. 16A; assay 2: FIG. 16B). […] Possibly due to the fact that very few cells express full-length Shh on the cell surface, the cytotoxic effect of the C-terminal Shh antibodies was not as potent as the cytotoxic effect of the N-terminal antibodies.\nNext, the cytotoxicity of the C-terminal Shh antibodies was tested when the antibodies were used in conjunction with a small-molecule inhibitor of GLI zinc-finger transcription factor signaling, 249C (4-(5-chlorofuran-2-yl)-1,3-bis(2,4-difluorophenyl)-5-methyl-N-((4-methylmorpholin-2-yl)methyl)-4,5-dihydro-1H-pyrazole-5-carboxamide; Compound 135 above). A549 cells were exposed to varying concentrations of the C-terminal antibodies (2G4, 2D9) or the N-terminal antibodies (6D3, 2E1), in the presence or absence of a very low dose (40 nM) of 249C. (The IC50 of 249C in A549 cells is ˜70 nM.)"}, "[4]": {"target": "T1, full-length Shh polypeptide (Homo sapiens, UniProt Q15465)", "T1 construct": "Expression of full-length Shh polypeptide in transfected cells; expressed in transfected cells; pCMV-Shh plasmid (Origene)", "assay": "Flow cytometry: binding of C-terminal Shh antibodies to full-length Shh expressed in transfected cells", "conditions": "antibody at 1:10 (Commercial at 1:50)", "procedure": "FACS (1:40). The secondary antibody was a donkey anti-mouse FITC-linked antibody (ab97029, 1:100, Abcam). For cell analysis after treatment assays (chemotherapy or GDC0449), a dead cell marker (SytoxRed, Invitrogen) was also used. For human fresh samples, an anti-CD45 APC-linked antibody (ab28106, 1:100, Abcam), and a dead cells marker (SytoxRed, Invitrogen) were added. For staining of stable transfected cell lines, mouse anti-HA antibody (Abcam, 1:100) and rabbit anti-FLAG antibody (Cell Signaling; 1:400) were used. Corresponding secondary antibodies were donkey anti-mouse AlexaFluor647 (Invitrogen, 1:1000) and donkey anti-rabbit AlexFluor594 (Invitrogen, 1:1000) antibodies. Flow cytometry analyses were performed on AccuriC6 flow cytometer (BD Biosciences), and FACS on FACSAria II (BD Biosciences). Flow analyses were based at least on 200,000 cells, and each test was made at least in triplicate. For all experiments, a negative control with cells processed without primary antibody was used. […]\nExpression of full-length Shh polypeptide in transfected cells increased the percentage of cells labeled with the Shh antibodies produced by two of the subclones (2D9 and 2G4) identified after the screening, compared to the percentage of untransfected cells labeled by the same antibodies, as measured by flow cytometry (Table 3)."}}}
{"molecule": "B1", "values": [{"measurement": "binding to Shh by Western blot", "setting": "[1]", "result": "bound to purified Shh"}, {"measurement": "binding response to Shh peptide-mimic ligands (BLI)", "setting": "[2]", "result": "increases in binding response"}, {"measurement": "Cell viability of A549 cells", "setting": "[3]; Ab conc. 32 ng/mL", "result": 99, "unit": "%"}, {"measurement": "Cell viability of A549 cells", "setting": "[3]; Ab conc. 64 ng/mL", "result": 95, "unit": "%"}, {"measurement": "Cell viability of A549 cells", "setting": "[3]; Ab conc. 128 ng/mL", "result": 91, "unit": "%"}, {"measurement": "synergy with a GLI inhibitor in reducing viability of non-small cell lung cancer cells", "setting": "[3]; with 249C at 40 nM", "result": "act synergistically"}, {"measurement": "percentage of cells labeled with the Shh antibody (flow cytometry)", "setting": "[4]; +SHh Full-Length transfection", "result": 2.24, "unit": "%"}, {"measurement": "percentage of cells labeled with the Shh antibody (flow cytometry)", "setting": "[4]; No transfection", "result": 0.17, "unit": "%"}]}
